Test results taken from US20080207521A1, “PEPTIDE LIGAND TO IMPAIR CANCER CELL MIGRATION” (priority 2005, published 2008).
One block for each molecule: values may come before it.

Columns and labels:
Frz-5 receptor [1] = biological target: T1, Frz-5 receptor (Homo sapiens, UniProt Q13467); test: cell-based or functional assay
DDR1 = DDR1 phosphorylation in MDA-MB-468 cells (immunoprecipitation/Western blot); type: cell-based, human
Protocol: The phosphorylation status of DDR1 was analyzed as previously described (12), with the following modifications. After serum-depletion for 16 h, the cells were detached with Versene and then allowed to adhere to collagen I for 60 (MDA-MB-468) or 90 min (HB2) at 37° C. The experiments were terminated by lysing both adherent and non-adherent cells with a lysis buffer (50 mM Tris pH 7.4, 1% Triton-X, 5 mM EDTA, 5 mM EGTA, 50 mM NaCl, 10 μg/ml aprotinin, 2.5 mM benzamidine, 1 mM pefabloc, 1 μg/ml leupeptin and 1 mM Na3VO4). For immunoblotting an anti-DDR1 rabbit polyclonal Ab, sc-532 (Santa Cruz Biotech, Santa Cruz, Calif.) was used at a dilution of 1:10,000. The Ab recognizes DDR1b/c, which is essential because collagen only induces phosphorylation of the b or c isoforms of DDR1 in mammary epithelial cells (10).
Peptide-induced effects on adhesion and DDR1 phosphorylation in MDA-MB-468 breast cancer cells. (A) Western blot analysis of Wnt-5a protein expression in Wnt-5a antisense and Wnt-5a over-expressing HB2 cells in comparison to MDA-MB-468 tumour cells. […] The amounts of adhesive cells were analyzed as described in the methods and the results are given as means±SEM of 8 separate experiments. […] The amount of adherent cells was estimated as in panel A and expressed as means±SEM of 6 separate experiments, ns=not significant, ** p<0.01 and *** p<0.001. […]

Src kinase = biological target: T2, Src kinase (Homo sapiens, UniProt P12931); test: Src activity in MDA-MB-468 cells (Western blot); type: cell-based; settings: PP1 10 μM for last 30 min; with or without serum
T2 construct: Src activity in MDA-MB-468 cells in the absence and presence of PP1 and/or serum; endogenous in cells; host or cells: MDA-MB-468
Protocol: Western blot analysis was performed to evaluate the protein expressions of Wnt-5a, EGF-receptor, Src and Frz-2 and 5 in HB2 and MDA-MB-468 cells. […] The Wnt-5a Ab has been produced in the laboratory, as previously described (9, 10). The cells were lysed and boiled in two times concentrated Laemmli buffer. The protein content was determined in each sample and adjusted to ensure loading of equal amounts of protein in each lane, 50 mM DTT was then added and the lysates were boiled for 10 min, before separation by SDS gel electrophoresis. The proteins were subsequently transferred to PVDF membranes. The membranes were blocked in 3% BSA or 5% non-fat milk for 45 min, incubated with the primary Ab for 1 h (1:2,000 for Wnt-5a, 1:1,000 for activated EGF-receptor, total EGF-receptor, actin, active Src and total Src, and 1:5,000 for Frz-2 and Frz-5), and then for 1 h with a horseradish peroxidase conjugated secondary Ab. The Ab-antigen complex was detected using an enhanced chemiluminescence detection kit from Amersham Pharmacia Biotech (Uppsala, Sweden). In the case of re-probing, the membranes were stripped with a Reblot Strong solution from Chemicon International (Temecula, Calif.).
(A) Effect of pre-treatment (30 min) with the Src-inhibitor PP1 (10 μM) on adhesion induced DDR1 phosphorylation in MDA-MB-468 cells. The blots shown are representative of 3 separate experiments. […]

[2] = system: Wnt-5a antisense HB2 cells; test: Migration of Wnt-5a antisense HB2 cells in modified Boyden chamber; type: cell-based, human; settings: recombinant Wnt-5a 0.4 μg/ml; 18 h
Protocol: Cell migration analyses were performed in a modified Boyden chamber with a polycarbonate membrane (10 μm thick with a porous diameter of 8.0 μm) separating the two chambers (Transwell®; Costar, Cambridge, Mass.). As indicated in some experiments the membranes were coated with collagen by adding collagen-I (10 μg/ml) diluted in 0.25% acetic acid to the upper chamber for 1 h at 37° C., after which it was washed three times with PBS. Each experiment was initiated by detaching the cells by Versene treatment for 10-20 min at 37° C., washed, and re-suspended as a single cell suspension in serum-free DMEM medium supplemented with 0.5% BSA. Together with the indicated agonist a 0.2 ml cell suspension (containing 25,000 MDA-MB-468 or 50,000 HB2 cells) was then added to the upper chamber of the transwell. The lower chamber was filled with 0.6 ml serum-free but BSA-containing DMEM medium supplemented with 1 ng/ml of the chemoattractant IGF-I. As a control, IGF-I was excluded in some wells in each separate experiment. The cells were allowed to migrate in the Boyden chamber for 18 h at 37° C. in a humidified atmosphere of 95% air and 5% CO2. The experiments were terminated by removing the non-migratory cells with a cotton-tipped applicator from the upper surface of the membranes. The remaining cells on the lower surface that had migrated through the membrane were stained for 20 min with 0.5% crystal violet diluted in 20% methanol/80% water. After washing the membranes the number of stained cells per membrane and well was counted in an inverted microscope. The value from each separate experiment represents the median value of three individual wells.
Effects of the selected and pure peptides on the ability of Wnt-5a antisense HB2 cells to adhere and migrate. (A-E) The ability of the cells to adhere to collagen type I-coated wells was analyzed as previously described for FIG. 2 in the absence or presence of different concentrations of the indicated peptide. (F) Effect of the indicated peptides on migration of Wnt-5a antisense HB2 in a transwell migration assay. The cells were allowed to migrate for 18 h in the absence or presence of 100 μM peptide or 0.4 μg/ml of recombinant Wnt5a. The data are given as means±SEM of 6-7 separate experiments, each performed in triplicate. * p<0.05 and ** p<0.01.

Frz-5 receptor [3] = biological target: T1, Frz-5 receptor; test: MDA-MB-468 cell migration with Frz-5 receptor blocking Ab or control anti-Frz-2 Ab; type: cell-based; set-up: endogenous in cells; host or cells: MDA-MB-468; settings: recombinant Wnt-5a 0.4 μg/ml; Ab 5 μg/ml; 18 h
Protocol: The peptide […], corresponding to amino acids 198-217 in the ectodomain of the human Frz-5 receptor was as previously described used to generate a Frz-5 receptor blocking Ab (13). The peptide […], corresponding to amino acids 202-220 in the ectodomain of the human Frz-2 receptor, was used to generate a control anti-Frz-2 Ab. The synthesis of the peptides (the italic letters indicate the Frz-5 and Frz-2 sequences, the cysteine was added for raising and purifying the Ab) and the production of rabbit anti-Frz-5 and anti-Frz-2 antisera were managed by AgriSera (Vännäs, Sweden; permit A69-04 from Ume(a) animal ethic committe). The antisera were affinity purified in the laboratory by coupling the respective peptide antigen to Sulfolink Sepharose over which the respective antisera was then eluted.
Cell migration analyses were performed in a modified Boyden chamber with a polycarbonate membrane (10 μm thick with a porous diameter of 8.0 μm) separating the two chambers (Transwell®; Costar, Cambridge, Mass.). As indicated in some experiments the membranes were coated with collagen by adding collagen-I (10 μg/ml) diluted in 0.25% acetic acid to the upper chamber for 1 h at 37° C., after which it was washed three times with PBS. […] After washing the membranes the number of stained cells per membrane and well was counted in an inverted microscope. […]

T1 sequence (Q13467 27-585): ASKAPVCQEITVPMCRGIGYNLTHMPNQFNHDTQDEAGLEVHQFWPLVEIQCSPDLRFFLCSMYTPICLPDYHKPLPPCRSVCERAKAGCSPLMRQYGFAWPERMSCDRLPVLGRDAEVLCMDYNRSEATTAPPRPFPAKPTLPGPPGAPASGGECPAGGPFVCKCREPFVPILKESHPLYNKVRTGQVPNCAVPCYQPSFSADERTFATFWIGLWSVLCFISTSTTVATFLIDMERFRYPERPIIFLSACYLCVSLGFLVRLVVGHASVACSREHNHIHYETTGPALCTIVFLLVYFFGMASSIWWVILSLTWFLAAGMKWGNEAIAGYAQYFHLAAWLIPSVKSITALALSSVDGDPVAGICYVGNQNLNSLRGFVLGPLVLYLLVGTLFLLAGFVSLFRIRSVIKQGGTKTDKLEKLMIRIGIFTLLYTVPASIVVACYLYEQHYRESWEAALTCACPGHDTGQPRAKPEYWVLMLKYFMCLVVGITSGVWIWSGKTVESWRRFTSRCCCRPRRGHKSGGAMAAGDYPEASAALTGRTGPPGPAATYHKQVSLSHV
T2 sequence (P12931 whole entry): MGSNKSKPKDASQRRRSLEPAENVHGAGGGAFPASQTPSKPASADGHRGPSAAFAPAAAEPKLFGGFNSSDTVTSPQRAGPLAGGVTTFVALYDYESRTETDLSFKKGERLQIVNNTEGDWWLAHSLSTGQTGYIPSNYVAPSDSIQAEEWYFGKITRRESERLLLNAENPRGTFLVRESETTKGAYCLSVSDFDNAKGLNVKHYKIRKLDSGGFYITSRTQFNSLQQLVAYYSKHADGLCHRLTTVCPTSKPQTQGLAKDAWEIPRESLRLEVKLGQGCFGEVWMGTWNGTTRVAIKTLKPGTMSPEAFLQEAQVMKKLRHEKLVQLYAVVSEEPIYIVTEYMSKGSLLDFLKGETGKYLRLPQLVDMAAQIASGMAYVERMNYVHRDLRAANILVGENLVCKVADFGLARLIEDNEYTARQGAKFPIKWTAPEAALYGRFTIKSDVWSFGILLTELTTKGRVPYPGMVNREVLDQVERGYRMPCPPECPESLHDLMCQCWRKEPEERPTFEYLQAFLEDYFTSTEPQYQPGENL

MDA-MB-468 cell adhesion to collagen I (Frz-5 receptor [1]): 15.7
Molecule: formylated tripeptide fMet-Leu-Phe

Src kinase activity (Src kinase): abolished
Molecule: Cc1ccc(-c2nn(C(C)(C)C)c3ncnc(N)c23)cc1 [PP1, 4-amino-5-(4-methyl-phenyl)-7-(t-butyl)pyrozolo-D-3,4-pyrimidine, reference compound]
basal phosphorylation of DDR1 (DDR1; PP1 10 μM for 30 min): abolished the basal phosphorylation of DDR1

decrease in migration in presence of anti-Frz-5 or anti-Frz-2 Ab (Frz-5 receptor [3]): mediated via the Frz-5 receptor
B1: recombinant Wnt-5a: recombinant mouse Wnt-5a (R&D Systems) (protein)
chain: IIGAQPLCSQLAGLSQGQKKLCHLYQDHMQYIGEGAKTGIKECQYQFRHRRWNCSTVDNTSVFGRVMQIGSRETAFTYAVSAAGVVNAMSRACREGELSTCGCSRAARPKDLPRDWLWGGCGDNIDYGYRFAKEFVDARERERIHAKGSYESARILMNLHNNEAGRRTVYNLADVACKCHGVSGSCSLKTCWLQLADFRKVGDALKEKYDSAAAMRLNSRGKLVQVNSRFNSPTTQDLVYIDPSPDYCVRNESTGSLGTQGRLCNKTSEGMDGCELMCCGRGYDQFKTVQTERCHCKFHWCCYVKCKKCTEIVDQFVCK
modifications: left off: small tags and cut ends
migration [2]: effectively decreased the migration | level of DDR1 phosphorylation (DDR1; recombinant Wnt-5a 0.8 μg/ml, 60 min on collagen I): neither the pure peptides, CM nor recombinant Wnt-5a were able to further increase
